From patent US20060183700A1, “Cgrp binding nucleic acids” (NOXXON Pharma AG, published 2006) come the findings set out here.

The target of series [1] is T1, D-CGRP (biotinylated, all-D alpha-calcitonin gene-related peptide) (Rattus norvegicus) (UniProt P01256).
T1 sequence: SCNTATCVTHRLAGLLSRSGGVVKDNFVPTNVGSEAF
The note with it: 2'-F pyrimidines.

Series [2] concerns the target T1, D-CGRP (biotinylated, all-D alpha-calcitonin gene-related peptide) (Rattus norvegicus). The series is described as follows: pulldown. The note with it: 2'-F pyrimidines, bead assay, 37 C, unit uM, probably nM.
For series [3] the target is unchanged. The series is described as follows: SPR. The note with it: 2'-F pyrimidines; clone shortened by two nucleotides; Biacore and ITC; higher by factor two at 37 C. (In general: Surface plasmon resonance follows binding to a sensor surface in real time, without labels.)
Series [4] concerns the target CGRP receptor on SK-N-MC cells. In words: cell-based or functional assay.
Series [5] addresses T2, alpha-CGRP (L) (Homo sapiens) (UniProt P06881).
T2 sequence: T1 sequence with S1A, N3D, D25N, E35K
The series is described as follows: ITC. The following applies: L-RNA; 37 C, activity 80%.

The target of series [6] is T3, calcitonin receptor on SK-N-MC cells (human) (UniProt P30988).
T3 sequence (looked up): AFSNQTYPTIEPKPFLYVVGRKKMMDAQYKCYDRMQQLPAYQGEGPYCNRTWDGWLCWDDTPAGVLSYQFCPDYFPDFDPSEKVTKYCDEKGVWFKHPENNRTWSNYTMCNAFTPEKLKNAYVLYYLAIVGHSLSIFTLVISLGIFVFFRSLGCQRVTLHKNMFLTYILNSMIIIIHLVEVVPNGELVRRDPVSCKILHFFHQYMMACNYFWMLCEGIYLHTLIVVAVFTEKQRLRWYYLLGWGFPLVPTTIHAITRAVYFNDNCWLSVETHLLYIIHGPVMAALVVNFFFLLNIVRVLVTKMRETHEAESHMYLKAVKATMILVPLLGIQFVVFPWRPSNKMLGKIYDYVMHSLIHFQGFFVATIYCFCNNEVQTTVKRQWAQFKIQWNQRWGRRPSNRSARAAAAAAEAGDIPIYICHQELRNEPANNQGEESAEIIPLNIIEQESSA
The series is described as follows: cell-based or functional assay.

In series [7] the target is CGRP receptor on SK-N-MC cells. The series is described as follows: cell-based or functional assay. The source holds these as a separate data set.
Series [8] has as its target calcitonin receptor-like receptor (CRLR) on SK-N-MC cells (human) (UniProt Q16602). In words: cell-based or functional assay.
A further series has as its target T4, CGRP (biotinylated) (Rattus norvegicus, UniProt P01256 P01256:83-119).
T4 chain: T1 sequence
In words: SPR; KD in narrow band around G12. The following applies: protein: synthetic; tags: biotin; synthetic peptide, Jerini.

Series [9] has as its target T3, calcitonin receptor on SK-N-MC cells (human). In words: cell-based or functional assay. The source holds these as a separate data set.

Where a chain is given by its changes, count along the chain named. Read-outs that look alike come from different tables or passages of the source. Where no end group is shown, it is not given here.

calcitonin receptor-like receptor (CRLR) on SK-N-MC cells (human), sequence (Q16602 23-461): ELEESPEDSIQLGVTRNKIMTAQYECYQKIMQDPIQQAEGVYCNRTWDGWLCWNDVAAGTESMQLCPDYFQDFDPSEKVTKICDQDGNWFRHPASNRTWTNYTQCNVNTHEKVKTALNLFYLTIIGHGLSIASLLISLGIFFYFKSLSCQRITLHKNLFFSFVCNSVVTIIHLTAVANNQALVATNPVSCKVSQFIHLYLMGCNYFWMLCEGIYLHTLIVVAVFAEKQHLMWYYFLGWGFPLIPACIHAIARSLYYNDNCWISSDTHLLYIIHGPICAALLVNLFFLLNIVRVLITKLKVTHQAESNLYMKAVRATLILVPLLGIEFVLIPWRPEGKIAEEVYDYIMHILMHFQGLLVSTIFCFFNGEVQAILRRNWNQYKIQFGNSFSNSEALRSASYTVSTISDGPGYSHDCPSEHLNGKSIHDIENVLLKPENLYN

As to “CGCAGCCUUCACUGCAGUGACGCACGUAUGAUAGUUUCCAUUUUGGACUCCUGCG [732_045]”, the Kd – broadly, a measure of binding affinity in units of concentration – in [1] came out at 30000 nM.
With “GGAGCUCAGCCUUCACUGCAGUGACGCACGUAUGAUAGUUUCCAUUUUGGACUCCUGGGCACCACGGUCGGAUCCAC [clone 732]”, the Kd in series [1] (666 with G20-A21 excised (in analogy to clone 732)) came out at 20000 nM; in [2], 23 µM; in series [3], 10000 nM.
Take “GGCAGCCUUCCUGCAGGACGCACGUAUGAUAGUUUGCUUUGCACUCCUGCC [732_104]”: the Kd in [1] turned out to be 40000 nM.
For the molecule “human α-CGRP (from UniProt P06881 83-119) (peptide)”, the EC50, intracellular cAMP in SK-N-MC cells in [4] stood at 1 µM.
On to “GGCAGCCUUGCUGCAGCACGCACGUAUGAUAGUUUCCUUUGGACUCCUGCC [732_103]”, for which the dissociation constant Kd in [1] was 20000 nM.
With “GGACUGAUGGCGCGGUCCUAUUACGCCGAGAAGGGAGUGGGGGA [L097 (NOX-504-097) spiegelmer]”, the Kd in [5] was 0.052 µM.
As for “GGCUCAGCCUUCACUGCAGUGACGCACGUAUGAUAGUUUCCAUUUUGGACUCCUGGGCC [732_029]”, in [1], the Kd is 30000 nM.
“GGAGCUCAGCCUUCACUGCGAAGUGACGCACGUAUGAUAGUUUCCAUUUUGGACUCCUGGGCACCACGGUCGGAUCCAC [clone 666]”: the Kd in series [1] (unit uM, probably misprint for nM, method not specified here (Biacore/ITC in Ex. 1)) worked out at 10000 nM.
As to “GGCAGCCUUCCUGCAGGACGCACGUAUGAUAGUUUCCUUUGGACUCCUGCC [732_100]”, the Kd in series [1] (51mer) came out at 75000 nM.
Take “GGCAGCCUUCACUGCAGUGACGCACGUAUGAUAGUUUCCAUUUUGGACUCCUGCC [732_026]”: the Kd in series [1] (stem shortened to five base pairs, FIG. 7) was 30000 nM.
Turning to “GGCAGCCUUCACUGCAGUGACGCACGUAUGAUAGUUUCCAAG / CUUGGACUCCUGCC [732_071a+732_071b]”, in series [1] (two-strand binder), the Kd came to 100000 nM.
Take “CGCUCAGCCUUCACUGCAGUGACGCACGUAUGAUAGUUUCCAUUUUGGACUCCUGGGCG [732_096]”: in series [1], the Kd worked out at 30000 nM.
Take “human amylin (from UniProt P10997 34-70) (peptide)”: the EC50, cAMP production in SK-N-MC cells in series [6] stood at 3 µM.
Turning to SCNTATCVTHRLAGLLSRSGGVVKDNFVPTNVGSEAF (peptide, UniProt P01256 83-119, looked up, ends and bridges not checked; cysteine pairing not given here) [rat α-CGRP (calcitonin gene-related peptide I, rat)], in series [7], the EC50, intracellular cAMP in SK-N-MC cells was 1 µM and the cAMP formation in SK-N-MC cells, half-maximum activation is 1 nM.
Take ACNTATCVTHRLAGLLSRSGGMVKSNFVPTNVGSKAF (peptide, UniProt P10092 82-118, looked up, ends and bridges not checked; cysteine pairing not given here) [human β-CGRP (calcitonin gene-related peptide II)]: the EC50, intracellular cAMP in SK-N-MC cells in [7] turned out to be 1 µM.

B1: human adrenomedullin (peptide, UniProt P35318 95-146, looked up)
peptide: YRQSMNNFQGLRSFGCRFGTCTVQKLAHQIYQFTDKDKDNVAPRSKISPQGY
As to B1, in series [8], the EC50, cAMP production in SK-N-MC cells worked out at 30 µM and the EC50, intracellular cAMP in SK-N-MC cells amounted to 0.03 µM.

B2: G12a (ssRNA)
RNA: GGAGCUCAGCCUUCACUGCAUCGAGGCAUCCAAGUUAUAGGAAUAGGGUGGCUUGAAGGGCACCACGGUCGGAUCCAG
In the case of B2, the binding result in the series with CGRP (biotinylated) is reported as “binds”.

B3: G12b (ssRNA)
RNA: B2 RNA
Consider B3, for which, in the series with CGRP (biotinylated), the binding result is reported as “binds”.

B4: G12c (ssRNA)
RNA: GGAGCUCAGCCUUCACUGCAUCGAGGCGAUCCAAGUUGAGGAAUGGGGUGGCUUGGAGGGCACCACGGUCGGAUCCAG
Regarding B4, in the series with CGRP (biotinylated), the binding result is listed as “binds”.
Regarding YRQSMNQGSRSTGCRFGTCTMQKLAHQIYQFTDKDKDGMAPRNKISPQGY (peptide, UniProt P43145 94-143, looked up) [rat adrenomedullin], in [8], the EC50, cAMP production in SK-N-MC cells worked out at 30 µM and the EC50, intracellular cAMP in SK-N-MC cells was found to be 0.03 µM.
With KCNTATCATQRLANFLVRSSNNLGPVLPPTNVGSNTY (peptide, UniProt P12969 38-74, looked up) [rat amylin], the EC50, cAMP production in SK-N-MC cells in series [9] was found to be 1 µM.

B5: G12d (ssRNA)
RNA: GGAGCUCAGCCUUCACUGCAUCGAAGGCGAUCCAAGUUGUAAGAAUGGGGGUGGCUUGGAGGGCACCACGGUCGGAUCCAG
Turning to B5, the binding result with CGRP (biotinylated) was “binds”.

B6: G12f (ssRNA)
RNA: GGAGCUCAGCCUUCACUGCAUCGAGGGCGAUCCAAGUUGUAGGAAUGGGGUGGCUUGGAGGGCACCACGGUCGGAUCCAG
Regarding B6, the binding result with CGRP (biotinylated) was “binds”.

B7: G12e (ssRNA)
RNA: GGAGCUCAGCCUUCACUGCAUCGAGGCGAUCCAAGUUGUAGGAAUUGGAUGACUUGGAGGGCACCACGGUCGGAUCCAG
For B7, in the series with CGRP (biotinylated), the binding result is given as “binds”.

B8: G12g (ssRNA)
RNA: B7 RNA with G25A, U46G, A49G, G51A, A52G
Turning to B8, the binding result with CGRP (biotinylated) is “binds”.
